Experimental findings from PMC12038006, “Structure and mechanism of a mycobacterial isoniazid efflux pump MsRv1273c/72c with a degenerate nucleotide-binding site” (Nature Communications, 2025) are described below.

For orientation: stoichiometry N means the number of molecules, sites or subunits per partner or assembly.

Test [1] deals with MsRv1272c (MSMEG_5009) from Mycobacterium smegmatis (Mycobacterium smegmatis (Msm) mc2 155) (UniProt A0R272).
Test [2] has the same target. Briefly: SEC. (SEC sorts molecules by how far they enter the pores of the column.)

In test [1], “MsRv1273c (MSMEG_5008) from Mycobacterium smegmatis (from UniProt A0R271 1-578) (natural protein)” showed a basal ATPase activity of the MsRv1273c/72c complex in peptidiscs (malachite green) (nM Pi min^–1 mg^–1) of 148 and a basal ATPase activity of the MsRv1273c/72c complex in proteoliposomes (malachite green) (nM Pi min^–1 mg^–1) of 181. For the same substance, in test [2], the stoichiometry N stood at 1.
